Results: PMC7912279 (2021)

Tests used:
[1] = molecular target: T1, gastrin-releasing peptide receptor (Homo sapiens, UniProt P30550); assay: LigandTracer on PC-3 cells (1:2 model, KD2)
[2] = molecular target: T1, gastrin-releasing peptide receptor; assay: LigandTracer on PC-3 cells (1:2 model, KD1)

T1 sequence (P30550 whole entry): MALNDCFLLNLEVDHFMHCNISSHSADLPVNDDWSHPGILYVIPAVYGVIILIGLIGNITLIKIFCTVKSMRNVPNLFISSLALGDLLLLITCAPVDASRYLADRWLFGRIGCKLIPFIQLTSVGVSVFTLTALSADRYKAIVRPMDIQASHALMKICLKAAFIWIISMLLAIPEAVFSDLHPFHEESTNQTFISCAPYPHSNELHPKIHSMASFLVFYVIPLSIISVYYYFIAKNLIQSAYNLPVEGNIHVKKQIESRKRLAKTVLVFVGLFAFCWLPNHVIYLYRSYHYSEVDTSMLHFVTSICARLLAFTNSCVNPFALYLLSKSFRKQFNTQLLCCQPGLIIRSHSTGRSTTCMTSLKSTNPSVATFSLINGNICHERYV

Row | Binder | Kd [1] | Kd [2]
1 | SSSFQWAVGHL (99mTc, mercaptoacetyl-Ser-Ser-Ser-PEG2-D-Phe-Gln-Trp-Ala-Val-Gly-His-Sta-Leu-NH2) [maSSS-PEG2-RM26] | 1.2 nM | 0.061 nM
2 | SESFQWAVGHL (99mTc, mercaptoacetyl-Ser-Glu-Ser-PEG2-D-Phe-Gln-Trp-Ala-Val-Gly-His-Sta-Leu-NH2) [maSES-PEG2-RM26] | 1.4 nM | 0.849 nM
